Measurements: the supplement of paper PMC10567573

B1: GAGE1 (parent)
chain: RPRRYVQPPEMIGPMRPEQFSDEV
B2: POMT2 (parent)
chain: LRGGGQVLLGWTLHYFPFFLMGRV

Variants of: B1
Assay: protein stability index of a GFP-peptide fusion (GPS, HEK-293T) (PSI 1-6); higher = more stable
Settings: c terminus: a fixed tail appended
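Further: lentivirally expressed fusions sorted by FACS into six bins by GFP to DsRed ratio, PSI derived from sequencing read proportions per bin multiplied by bin number.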

Protein stability index, by site and new letter:
E10: Q 3.69 | R 4.39 | S 4.08 | T 4.33 | V 3.99 | W 3.56 | Y 3.18
M11: A 4.34 | C 3.56 | D 3.53 | E 3.88 | F 4.05 | G 4.44 | H 4.37 | I 3.38 | K 4.15 | L 3.4 | N 3.38 | P 4.53 | Q 3.84 | R 4.22 | S 3.54 | T 3.74 | V 3.46 | W 3.91 | Y 3.82
I12: A 4.42 | C 4.33 | D 4.72 | E 4.57 | F 3.99 | G 4.69 | H 4.3 | K 4.62 | L 4.12 | M 4.39 | N 4.71 | P 4.31 | Q 4.62 | R 4.35 | S 4.36 | T 4.53 | V 4.77 | W 3.84 | Y 3.91
G13: A 4.21 | C 3.96 | D 4.63 | E 3.95 | F 3.8 | H 4.07 | I 3.25 | K 3.72 | L 3.71 | M 4.14 | N 4.33 | P 4.68 | Q 4.54 | R 4.19 | S 4.09 | T 4.33 | V 4.05 | W 3.56 | Y 3.85
P14: A 4.38 | C 3.68 | D 4.54 | E 4.41 | F 3.54 | G 3.97 | H 4.31 | I 4.13 | K 3.71 | L 3.48 | M 3.6 | N 4.2 | Q 4.23 | R 4.31 | S 4.13 | T 4.44 | V 4.2 | W 3.58 | Y 4.26
M15: A 4.21 | C 4.31 | D 4.75 | E 4.78 | F 3.89 | G 4.7 | H 3.69 | I 4.12 | K 4.48 | L 3.95 | N 3.97 | P 4.31 | Q 4.58 | R 4.17 | S 4.84 | T 4.72 | V 4.49 | W 3.49 | Y 4
R16: A 4.31 | C 3.84 | D 3.84 | E 4.3 | F 3.8 | G 4.17 | H 4.29 | I 4.44 | K 3.94 | L 3.5 | M 3.88 | N 4.31 | P 4.35 | Q 4.26 | S 3.87 | T 3.8 | V 4.16 | W 3.28 | Y 4.02
P17: A 3.8 | C 3.79 | D 4.43 | E 4.33 | F 3.58 | G 4.55 | H 3.92 | I 3.72 | K 4.14 | L 3.97 | M 3.88 | N 4.09 | Q 4.15 | R 3.96 | S 4.39 | T 3.85 | V 4.43 | W 3.66 | Y 3.36
E18: A 3.81 | C 3.21 | D 3.48 | F 3.34 | G 3.86 | H 3.46 | I 3.13 | K 3.43 | L 3.52 | M 3.45 | N 3.66 | P 3.6 | Q 3.56 | R 3.57 | S 3.33 | T 3.84 | V 3.32 | W 3.16 | Y 3.51
Q19: A 3.71 | C 4.16 | D 3.69 | E 3.51 | F 3.62 | G 4.28 | H 3.62 | I 3.78 | K 3.98 | L 3.63 | M 3.58 | N 3.79 | P 4.11 | R 3.71 | S 3.82 | T 4.09 | V 3.78 | W 3.12 | Y 3.92
F20: A 4.98 | C 4.64 | D 4.91 | E 4.97 | G 4.85 | H 4.04 | I 4.31 | K 4.92 | L 4.5 | M 4.08 | N 4.8 | P 4.72 | Q 4.84 | R 4.64 | S 4.42 | T 4.62 | V 4.71 | W 3.94 | Y 3.82
S21: A 3.69 | C 4.15 | D 3.98 | E 3.73 | F 2.97 | G 4.17 | H 3.55 | I 2.9 | K 4 | L 3.48 | M 3.44 | N 3.87 | P 3.99 | Q 3.79 | R 4.11 | T 3.71 | V 3.64 | W 3.01 | Y 3.63
D22: A 3.87 | C 3.14 | E 3.83 | F 2.16 | G 3.62 | H 3.29 | I 1.97 | K 3.88 | L 2.6 | M 3.06 | N 3.23 | P 3.95 | Q 3.11 | R 3.5 | S 3.95 | T 3.76 | V 2.9 | W 2.53 | Y 2.77
E23: A 3.59 | C 3.58 | D 3.77 | F 2.98 | G 3.46 | H 3.6 | I 2.92 | K 3.65 | L 3.08 | M 2.85 | N 3.42 | P 3.63 | Q 3.63 | R 3.85 | S 3.68 | T 3.75 | V 3.77 | W 2.95 | Y 2.76
V24: A 4.52 | C 3.35 | D 4.09 | E 4.17 | F 2.74 | G 3.58 | H 4.46 | I 3.51 | K 4.5 | L 3.74 | M 3.74 | N 4.2 | P 4.06 | Q 4.18 | R 4.47 | S 4.21 | T 4.17 | W 4.01 | Y 3.94

Variants of: B2
Assay: as above
Settings: c terminus: a fixed tail appended

Protein stability index of substitutions, site by site:
L1: A 3.17 | D 2.89 | E 2.74 | F 3.06 | G 2.56 | R 3.02 | S 2.23
R2: D 3.49 | K 2.04 | L 2.63 | P 2.6 | Q 1.79 | S 2.59 | T 1.36 | W 3.48 | Y 2.82
G3: I 2.59 | M 1.82 | N 2.48 | Q 2.94 | R 2.12 | S 1.68 | W 5.12 | Y 4.15
G4: D 2.16 | F 1.41 | H 3.5 | K 3.19 | L 1.27 | M 3.71 | R 1.38 | V 2.52 | W 1.47 | Y 2.25
G5: D 3.03 | E 3.02 | I 4.58 | N 3.2 | T 2.95 | Y 3.6
Q6: D 1.69 | F 2.24 | I 2.01 | K 2.02 | L 2.48 | P 3.06
V7: A 2.26 | C 1.26 | G 3.97 | K 4.17 | M 2.07 | Q 1.21 | R 2.7 | T 1.32 | W 2.36 | Y 4.03
L8: A 2.97 | N 3 | R 3.14 | V 1.64 | Y 3.82
